Data as given in US20230183713A1, “SITE-SPECIFIC RECOMBINASES FOR EFFICIENT AND SPECIFIC GENOME EDITING” (TECHNISCHE UNIVERSITÄt DRESDEN, published 2023).

Key:
[1] = target: T1, Cre recombinase monomer with Y324L mutation
T1 chain: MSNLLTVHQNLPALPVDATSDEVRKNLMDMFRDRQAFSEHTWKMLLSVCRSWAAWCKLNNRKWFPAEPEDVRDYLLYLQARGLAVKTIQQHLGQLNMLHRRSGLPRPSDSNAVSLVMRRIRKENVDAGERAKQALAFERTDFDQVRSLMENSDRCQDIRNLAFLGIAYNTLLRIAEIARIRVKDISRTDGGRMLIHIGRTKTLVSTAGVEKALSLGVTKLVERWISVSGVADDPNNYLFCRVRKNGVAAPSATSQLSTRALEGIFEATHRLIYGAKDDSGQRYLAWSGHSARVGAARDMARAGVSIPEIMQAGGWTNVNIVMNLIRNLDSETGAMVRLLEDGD

[2] = target: T2, Cre recombinase monomer with Q311R mutation
T2 chain: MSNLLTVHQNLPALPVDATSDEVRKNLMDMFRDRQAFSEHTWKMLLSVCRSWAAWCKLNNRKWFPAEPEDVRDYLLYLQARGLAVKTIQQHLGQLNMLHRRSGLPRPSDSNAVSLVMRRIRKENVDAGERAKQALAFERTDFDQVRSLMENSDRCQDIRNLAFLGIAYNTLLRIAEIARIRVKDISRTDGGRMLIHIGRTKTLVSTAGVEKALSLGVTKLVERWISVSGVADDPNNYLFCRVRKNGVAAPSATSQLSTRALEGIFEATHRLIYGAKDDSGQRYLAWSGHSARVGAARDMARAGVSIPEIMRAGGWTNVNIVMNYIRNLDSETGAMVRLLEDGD

[3] = target: T3, Cre recombinase monomer with Y324K mutation
T3 chain: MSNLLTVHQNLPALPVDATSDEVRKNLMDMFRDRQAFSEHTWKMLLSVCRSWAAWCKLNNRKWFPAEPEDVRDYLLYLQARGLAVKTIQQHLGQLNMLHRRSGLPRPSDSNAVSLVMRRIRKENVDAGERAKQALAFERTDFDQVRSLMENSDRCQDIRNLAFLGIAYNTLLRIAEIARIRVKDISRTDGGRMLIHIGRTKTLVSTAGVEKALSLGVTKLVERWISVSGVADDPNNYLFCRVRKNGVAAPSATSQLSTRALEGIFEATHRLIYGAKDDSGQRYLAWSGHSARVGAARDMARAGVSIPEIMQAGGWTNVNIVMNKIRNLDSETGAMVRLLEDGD

[4] = target: T4, Cre recombinase monomer with W315T mutation
T4 chain: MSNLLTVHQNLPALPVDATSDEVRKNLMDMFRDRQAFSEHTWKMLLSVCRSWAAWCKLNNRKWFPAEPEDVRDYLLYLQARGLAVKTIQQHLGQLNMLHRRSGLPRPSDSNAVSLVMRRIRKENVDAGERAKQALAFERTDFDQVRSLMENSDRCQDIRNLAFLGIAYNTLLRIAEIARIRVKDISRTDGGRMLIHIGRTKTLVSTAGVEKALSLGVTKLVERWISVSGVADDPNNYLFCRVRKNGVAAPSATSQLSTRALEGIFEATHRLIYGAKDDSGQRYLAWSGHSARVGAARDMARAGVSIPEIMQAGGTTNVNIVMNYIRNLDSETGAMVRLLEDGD

[5] = target: T5, Cre recombinase monomer with E176I mutation
T5 chain: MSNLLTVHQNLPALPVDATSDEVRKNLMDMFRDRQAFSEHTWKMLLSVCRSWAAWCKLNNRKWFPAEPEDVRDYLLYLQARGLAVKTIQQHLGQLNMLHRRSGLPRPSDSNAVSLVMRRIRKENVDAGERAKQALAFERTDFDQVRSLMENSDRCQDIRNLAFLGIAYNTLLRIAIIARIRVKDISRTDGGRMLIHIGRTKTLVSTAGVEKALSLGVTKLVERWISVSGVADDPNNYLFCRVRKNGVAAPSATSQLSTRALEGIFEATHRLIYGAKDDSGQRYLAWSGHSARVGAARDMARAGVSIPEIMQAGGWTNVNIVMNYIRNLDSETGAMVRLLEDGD

[6] = target: T6, Cre recombinase monomer with E176H mutation
T6 chain: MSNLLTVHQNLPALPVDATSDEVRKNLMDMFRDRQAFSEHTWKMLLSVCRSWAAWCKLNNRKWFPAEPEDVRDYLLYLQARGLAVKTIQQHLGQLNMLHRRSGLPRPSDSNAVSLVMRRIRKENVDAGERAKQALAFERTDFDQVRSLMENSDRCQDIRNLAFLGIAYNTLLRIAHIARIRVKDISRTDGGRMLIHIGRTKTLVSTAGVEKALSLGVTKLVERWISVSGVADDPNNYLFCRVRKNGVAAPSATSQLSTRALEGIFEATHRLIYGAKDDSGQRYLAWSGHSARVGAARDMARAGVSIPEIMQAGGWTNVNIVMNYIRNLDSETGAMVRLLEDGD

[7] = target: T7, Cre recombinase monomer with E176V mutation
T7 chain: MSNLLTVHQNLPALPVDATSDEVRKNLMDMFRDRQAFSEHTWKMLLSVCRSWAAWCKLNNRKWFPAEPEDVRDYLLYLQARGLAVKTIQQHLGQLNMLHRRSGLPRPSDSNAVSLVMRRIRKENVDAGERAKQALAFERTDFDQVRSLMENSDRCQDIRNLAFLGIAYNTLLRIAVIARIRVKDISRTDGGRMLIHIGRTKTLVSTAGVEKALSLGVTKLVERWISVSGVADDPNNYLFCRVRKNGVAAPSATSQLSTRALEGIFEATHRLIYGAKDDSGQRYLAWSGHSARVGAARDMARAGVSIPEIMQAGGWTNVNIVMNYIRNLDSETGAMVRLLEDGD

[8] = target: T8, Cre recombinase monomer with E176Y mutation
T8 chain: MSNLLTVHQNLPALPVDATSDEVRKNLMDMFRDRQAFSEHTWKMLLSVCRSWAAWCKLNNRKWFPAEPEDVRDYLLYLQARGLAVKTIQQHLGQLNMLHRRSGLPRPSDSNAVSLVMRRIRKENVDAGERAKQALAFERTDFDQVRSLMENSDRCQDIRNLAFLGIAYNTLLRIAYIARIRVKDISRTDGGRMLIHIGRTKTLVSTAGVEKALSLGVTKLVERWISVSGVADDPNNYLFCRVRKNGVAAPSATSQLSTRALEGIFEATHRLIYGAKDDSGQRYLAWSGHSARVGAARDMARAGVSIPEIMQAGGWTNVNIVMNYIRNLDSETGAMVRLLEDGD

B1: Cre recombinase monomer with K201P mutation (protein)
chain: MSNLLTVHQNLPALPVDATSDEVRKNLMDMFRDRQAFSEHTWKMLLSVCRSWAAWCKLNNRKWFPAEPEDVRDYLLYLQARGLAVKTIQQHLGQLNMLHRRSGLPRPSDSNAVSLVMRRIRKENVDAGERAKQALAFERTDFDQVRSLMENSDRCQDIRNLAFLGIAYNTLLRIAEIARIRVKDISRTDGGRMLIHIGRTPTLVSTAGVEKALSLGVTKLVERWISVSGVADDPNNYLFCRVRKNGVAAPSATSQLSTRALEGIFEATHRLIYGAKDDSGQRYLAWSGHSARVGAARDMARAGVSIPEIMQAGGWTNVNIVMNYIRNLDSETGAMVRLLEDGD
Median dimer activity (recombination on loxP) [1]: 59% | Median dimer activity (recombination on loxP) [2]: 95%

B2: Cre recombinase monomer with W315M mutation (protein)
chain: MSNLLTVHQNLPALPVDATSDEVRKNLMDMFRDRQAFSEHTWKMLLSVCRSWAAWCKLNNRKWFPAEPEDVRDYLLYLQARGLAVKTIQQHLGQLNMLHRRSGLPRPSDSNAVSLVMRRIRKENVDAGERAKQALAFERTDFDQVRSLMENSDRCQDIRNLAFLGIAYNTLLRIAEIARIRVKDISRTDGGRMLIHIGRTKTLVSTAGVEKALSLGVTKLVERWISVSGVADDPNNYLFCRVRKNGVAAPSATSQLSTRALEGIFEATHRLIYGAKDDSGQRYLAWSGHSARVGAARDMARAGVSIPEIMQAGGMTNVNIVMNYIRNLDSETGAMVRLLEDGD
Median dimer activity (recombination on loxP) [1]: 71%

B3: Cre recombinase monomer with R292T mutation (protein)
chain: MSNLLTVHQNLPALPVDATSDEVRKNLMDMFRDRQAFSEHTWKMLLSVCRSWAAWCKLNNRKWFPAEPEDVRDYLLYLQARGLAVKTIQQHLGQLNMLHRRSGLPRPSDSNAVSLVMRRIRKENVDAGERAKQALAFERTDFDQVRSLMENSDRCQDIRNLAFLGIAYNTLLRIAEIARIRVKDISRTDGGRMLIHIGRTKTLVSTAGVEKALSLGVTKLVERWISVSGVADDPNNYLFCRVRKNGVAAPSATSQLSTRALEGIFEATHRLIYGAKDDSGQRYLAWSGHSATVGAARDMARAGVSIPEIMQAGGWTNVNIVMNYIRNLDSETGAMVRLLEDGD
Median dimer activity (recombination on loxP) [3]: 55% | Median dimer activity (recombination on loxP) [2]: 94%

B4: Cre recombinase monomer with W315K mutation (protein)
chain: MSNLLTVHQNLPALPVDATSDEVRKNLMDMFRDRQAFSEHTWKMLLSVCRSWAAWCKLNNRKWFPAEPEDVRDYLLYLQARGLAVKTIQQHLGQLNMLHRRSGLPRPSDSNAVSLVMRRIRKENVDAGERAKQALAFERTDFDQVRSLMENSDRCQDIRNLAFLGIAYNTLLRIAEIARIRVKDISRTDGGRMLIHIGRTKTLVSTAGVEKALSLGVTKLVERWISVSGVADDPNNYLFCRVRKNGVAAPSATSQLSTRALEGIFEATHRLIYGAKDDSGQRYLAWSGHSARVGAARDMARAGVSIPEIMQAGGKTNVNIVMNYIRNLDSETGAMVRLLEDGD
Median dimer activity (recombination on loxP) [3]: 99%

B5: Cre recombinase monomer with W315L mutation (protein)
chain: MSNLLTVHQNLPALPVDATSDEVRKNLMDMFRDRQAFSEHTWKMLLSVCRSWAAWCKLNNRKWFPAEPEDVRDYLLYLQARGLAVKTIQQHLGQLNMLHRRSGLPRPSDSNAVSLVMRRIRKENVDAGERAKQALAFERTDFDQVRSLMENSDRCQDIRNLAFLGIAYNTLLRIAEIARIRVKDISRTDGGRMLIHIGRTKTLVSTAGVEKALSLGVTKLVERWISVSGVADDPNNYLFCRVRKNGVAAPSATSQLSTRALEGIFEATHRLIYGAKDDSGQRYLAWSGHSARVGAARDMARAGVSIPEIMQAGGLTNVNIVMNYIRNLDSETGAMVRLLEDGD
Median dimer activity (recombination on loxP) [4]: 50%

B6: Cre recombinase monomer with R173I mutation (protein)
chain: MSNLLTVHQNLPALPVDATSDEVRKNLMDMFRDRQAFSEHTWKMLLSVCRSWAAWCKLNNRKWFPAEPEDVRDYLLYLQARGLAVKTIQQHLGQLNMLHRRSGLPRPSDSNAVSLVMRRIRKENVDAGERAKQALAFERTDFDQVRSLMENSDRCQDIRNLAFLGIAYNTLLIIAEIARIRVKDISRTDGGRMLIHIGRTKTLVSTAGVEKALSLGVTKLVERWISVSGVADDPNNYLFCRVRKNGVAAPSATSQLSTRALEGIFEATHRLIYGAKDDSGQRYLAWSGHSARVGAARDMARAGVSIPEIMQAGGWTNVNIVMNYIRNLDSETGAMVRLLEDGD
Median dimer activity (recombination on loxP) [5]: 40% | Median dimer activity (recombination on loxP) [6]: 42% | Median dimer activity (recombination on loxP) [2]: 93% | Median dimer activity (recombination on loxP) [7]: 44%

B7: Cre recombinase monomer with R173W mutation (protein)
chain: MSNLLTVHQNLPALPVDATSDEVRKNLMDMFRDRQAFSEHTWKMLLSVCRSWAAWCKLNNRKWFPAEPEDVRDYLLYLQARGLAVKTIQQHLGQLNMLHRRSGLPRPSDSNAVSLVMRRIRKENVDAGERAKQALAFERTDFDQVRSLMENSDRCQDIRNLAFLGIAYNTLLWIAEIARIRVKDISRTDGGRMLIHIGRTKTLVSTAGVEKALSLGVTKLVERWISVSGVADDPNNYLFCRVRKNGVAAPSATSQLSTRALEGIFEATHRLIYGAKDDSGQRYLAWSGHSARVGAARDMARAGVSIPEIMQAGGWTNVNIVMNYIRNLDSETGAMVRLLEDGD
Median dimer activity (recombination on loxP) [8]: 30% | Median dimer activity (recombination on loxP) [6]: 57% | Median dimer activity (recombination on loxP) [2]: 95%
